Assay results as given in patent publication US20250215412A1 (NOVOZYMES A S, published 2025).
Where “and” joins values, the source holds several entries; their conditions need not be identical. Identical values can stand only once.

T1: Chryseobacterium sp-62563 deamidase polypeptide (second polypeptide, deamidase domain), wildtype (Chryseobacterium sp-62563)
T1 sequence: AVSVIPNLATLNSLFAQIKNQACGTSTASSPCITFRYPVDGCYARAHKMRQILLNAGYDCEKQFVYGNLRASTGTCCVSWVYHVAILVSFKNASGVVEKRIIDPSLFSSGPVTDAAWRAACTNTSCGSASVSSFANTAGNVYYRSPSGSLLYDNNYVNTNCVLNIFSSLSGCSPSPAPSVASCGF


Target: T1, Chryseobacterium sp-62563 deamidase polypeptide (second polypeptide, deamidase domain), wildtype (Chryseobacterium sp-62563)
Test: cell-based or functional assay

| NanoDSF thermal unfolding temperature | Relative activity of maturated deamidase (% initial rate) | Leakage activity | Molecule |
| --- | --- | --- | --- |
| 79.5 ° C. | > 100 |  | Chryseobacterium sp-62563 propeptide K96* |
| 82 ° C. | 68 |  | Chryseobacterium sp-62563 propeptide S97SY |
| 81.7 ° C. | 98 |  | Chryseobacterium sp-62563 propeptide T100* |
| 79.8 ° C. | > 100 |  | Chryseobacterium sp-62563 propeptide F95FA |
| 80.3 ° C. | > 100 |  | Chryseobacterium sp-62563 propeptide D90DA |
| 81.1 ° C. | > 100 |  | Chryseobacterium sp-62563 propeptide S97SS |
| 69.2 ° C. |  |  | Chryseobacterium sp-62563 propeptide P44PA |
| 77.5 ° C. |  |  | Chryseobacterium sp-62563 propeptide I92* |
|  | 50 |  | Chryseobacterium sp-62563 propeptide S97SF |
| 77.1 ° C. | > 100 |  | Chryseobacterium sp-62563 propeptide F95* |
| 78.7 ° C. |  |  | Chryseobacterium sp-62563 propeptide V98* |
| 81.4 ° C. | > 100 |  | Chryseobacterium sp-62563 propeptide S97SK |
|  | 30 |  | Chryseobacterium sp-62563 propeptide S97SI |
| 81.6 ° C. | 99 |  | Chryseobacterium sp-62563 propeptide S97ST |
|  | 41 |  | Chryseobacterium sp-62563 propeptide T100TA |
|  | 76 | 1% | Chryseobacterium sp-62563 propeptide V25H (protein) NQDPNLVAKESNETAMKDFGKTVPHGIEKEDGKFKISFMVTAQPYEIKDSKENAAYISMIKTAVENETPIHVFLKANTNEIAKVDKATDDDIRYFKSVFTKEVKEENRK |
| 65.2 ° C. | > 100 | 2% | Chryseobacterium sp-62563 propeptide Y45G (protein) NQDPNLVAKESNETAMKDFGKTVPVGIEKEDGKFKISFMVTAQPGEIKDSKENAAYISMIKTAVENETPIHVFLKANTNEIAKVDKATDDDIRYFKSVFTKEVKEENRK |
|  |  | 0% | Chryseobacterium sp-62563 propeptide Q43H (protein) NQDPNLVAKESNETAMKDFGKTVPVGIEKEDGKFKISFMVTAHPYEIKDSKENAAYISMIKTAVENETPIHVFLKANTNEIAKVDKATDDDIRYFKSVFTKEVKEENRK |
|  | 59 | 0% | Chryseobacterium sp-62563 propeptide Q43R (protein) NQDPNLVAKESNETAMKDFGKTVPVGIEKEDGKFKISFMVTARPYEIKDSKENAAYISMIKTAVENETPIHVFLKANTNEIAKVDKATDDDIRYFKSVFTKEVKEENRK |
|  | 88 | 6% | Chryseobacterium sp-62563 propeptide Y45Q (protein) NQDPNLVAKESNETAMKDFGKTVPVGIEKEDGKFKISFMVTAQPQEIKDSKENAAYISMIKTAVENETPIHVFLKANTNEIAKVDKATDDDIRYFKSVFTKEVKEENRK |

| NanoDSF thermal unfolding temperature | Relative activity of maturated deamidase (% initial rate) | Leakage activity | Molecule |
| --- | --- | --- | --- |
|  | > 100 | 0% | Chryseobacterium sp-62563 propeptide A42K (protein) NQDPNLVAKESNETAMKDFGKTVPVGIEKEDGKFKISFMVTKQPYEIKDSKENAAYISMIKTAVENETPIHVFLKANTNEIAKVDKATDDDIRYFKSVFTKEVKEENRK |
|  | 73 | 2% | Chryseobacterium sp-62563 propeptide Y45N (protein) NQDPNLVAKESNETAMKDFGKTVPVGIEKEDGKFKISFMVTAQPNEIKDSKENAAYISMIKTAVENETPIHVFLKANTNEIAKVDKATDDDIRYFKSVFTKEVKEENRK |
|  | 40 | 0% | Chryseobacterium sp-62563 propeptide Y45A (protein) NQDPNLVAKESNETAMKDFGKTVPVGIEKEDGKFKISFMVTAQPAEIKDSKENAAYISMIKTAVENETPIHVFLKANTNEIAKVDKATDDDIRYFKSVFTKEVKEENRK |
|  | > 100 | 0% | Chryseobacterium sp-62563 propeptide K35E (protein) NQDPNLVAKESNETAMKDFGKTVPVGIEKEDGKFEISFMVTAQPYEIKDSKENAAYISMIKTAVENETPIHVFLKANTNEIAKVDKATDDDIRYFKSVFTKEVKEENRK |
|  | 93 | 2% | Chryseobacterium sp-62563 propeptide F38T (protein) NQDPNLVAKESNETAMKDFGKTVPVGIEKEDGKFKISTMVTAQPYEIKDSKENAAYISMIKTAVENETPIHVFLKANTNEIAKVDKATDDDIRYFKSVFTKEVKEENRK |
|  |  | 0% | Chryseobacterium sp-62563 propeptide D49P (protein) NQDPNLVAKESNETAMKDFGKTVPVGIEKEDGKFKISFMVTAQPYEIKPSKENAAYISMIKTAVENETPIHVFLKANTNEIAKVDKATDDDIRYFKSVFTKEVKEENRK |
|  | 66 | 0% | Chryseobacterium sp-62563 propeptide K33E (protein) NQDPNLVAKESNETAMKDFGKTVPVGIEKEDGEFKISFMVTAQPYEIKDSKENAAYISMIKTAVENETPIHVFLKANTNEIAKVDKATDDDIRYFKSVFTKEVKEENRK |
|  |  | 0% | Chryseobacterium sp-62563 propeptide T41D (protein) NQDPNLVAKESNETAMKDFGKTVPVGIEKEDGKFKISFMVDAQPYEIKDSKENAAYISMIKTAVENETPIHVFLKANTNEIAKVDKATDDDIRYFKSVFTKEVKEENRK |
|  | > 100 | 0% | Chryseobacterium sp-62563 propeptide Q43D (protein) NQDPNLVAKESNETAMKDFGKTVPVGIEKEDGKFKISFMVTADPYEIKDSKENAAYISMIKTAVENETPIHVFLKANTNEIAKVDKATDDDIRYFKSVFTKEVKEENRK |
|  |  | 0% | Chryseobacterium sp-62563 propeptide Q43V (protein) NQDPNLVAKESNETAMKDFGKTVPVGIEKEDGKFKISFMVTAVPYEIKDSKENAAYISMIKTAVENETPIHVFLKANTNEIAKVDKATDDDIRYFKSVFTKEVKEENRK |
| 69.8 ° C. | 94 | 10% and 7% | Chryseobacterium sp-62563 propeptide V23S (protein) NQDPNLVAKESNETAMKDFGKTSPVGIEKEDGKFKISFMVTAQPYEIKDSKENAAYISMIKTAVENETPIHVFLKANTNEIAKVDKATDDDIRYFKSVFTKEVKEENRK |
|  | 67 | 0% | Chryseobacterium sp-62563 propeptide T41E (protein) NQDPNLVAKESNETAMKDFGKTVPVGIEKEDGKFKISFMVEAQPYEIKDSKENAAYISMIKTAVENETPIHVFLKANTNEIAKVDKATDDDIRYFKSVFTKEVKEENRK |
|  | > 100 | 0% | Chryseobacterium sp-62563 propeptide Y45S (protein) NQDPNLVAKESNETAMKDFGKTVPVGIEKEDGKFKISFMVTAQPSEIKDSKENAAYISMIKTAVENETPIHVFLKANTNEIAKVDKATDDDIRYFKSVFTKEVKEENRK |
|  | 39 | 0% | Chryseobacterium sp-62563 propeptide V40P (protein) NQDPNLVAKESNETAMKDFGKTVPVGIEKEDGKFKISFMPTAQPYEIKDSKENAAYISMIKTAVENETPIHVFLKANTNEIAKVDKATDDDIRYFKSVFTKEVKEENRK |
|  | 48 | 0% | Chryseobacterium sp-62563 propeptide Y45K (protein) NQDPNLVAKESNETAMKDFGKTVPVGIEKEDGKFKISFMVTAQPKEIKDSKENAAYISMIKTAVENETPIHVFLKANTNEIAKVDKATDDDIRYFKSVFTKEVKEENRK |
|  | 72 | 2% | Chryseobacterium sp-62563 propeptide F38A (protein) NQDPNLVAKESNETAMKDFGKTVPVGIEKEDGKFKISAMVTAQPYEIKDSKENAAYISMIKTAVENETPIHVFLKANTNEIAKVDKATDDDIRYFKSVFTKEVKEENRK |
| 76.2 ° C. | 83 | 26% | Chryseobacterium sp-62563 propeptide F38C (protein) NQDPNLVAKESNETAMKDFGKTVPVGIEKEDGKFKISCMVTAQPYEIKDSKENAAYISMIKTAVENETPIHVFLKANTNEIAKVDKATDDDIRYFKSVFTKEVKEENRK |
| 73.7 ° C. | > 100 | 2% | Chryseobacterium sp-62563 propeptide Y45T (protein) NQDPNLVAKESNETAMKDFGKTVPVGIEKEDGKFKISFMVTAQPTEIKDSKENAAYISMIKTAVENETPIHVFLKANTNEIAKVDKATDDDIRYFKSVFTKEVKEENRK |
|  | 64 | 3% | Chryseobacterium sp-62563 propeptide Q43K (protein) NQDPNLVAKESNETAMKDFGKTVPVGIEKEDGKFKISFMVTAKPYEIKDSKENAAYISMIKTAVENETPIHVFLKANTNEIAKVDKATDDDIRYFKSVFTKEVKEENRK |
